Results taken from paper PMC4362373.

Target: recombinant human IL-1RI Fc chimera (human) (UniProt P14778)
Test: ELISA

Sequence of UniProt P14778 (P14778 18-336, change not shown): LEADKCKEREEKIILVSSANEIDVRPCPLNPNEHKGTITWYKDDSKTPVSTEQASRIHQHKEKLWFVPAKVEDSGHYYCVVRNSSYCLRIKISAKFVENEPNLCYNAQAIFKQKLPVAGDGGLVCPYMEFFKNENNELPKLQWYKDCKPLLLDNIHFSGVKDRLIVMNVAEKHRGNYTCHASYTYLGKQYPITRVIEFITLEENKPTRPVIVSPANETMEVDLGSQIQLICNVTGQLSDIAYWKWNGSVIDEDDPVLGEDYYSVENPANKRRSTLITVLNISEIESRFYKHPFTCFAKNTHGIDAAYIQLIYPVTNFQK

hIL-1b(D145K) (ligand) was tested, and the fold reduction of affinity against wild-type IL-1β was 3500 fold.
